Biological target: Chikungunya virus-like particles (strain 37997) (chikungunya virus) (UniProt Q8JUX5)
Assay: BLI

Q: “Monovalent mouse MXRA8 cleaved from the Fc fusion (from UniProt Q9DBV4 22-336) (domain or fragment)” was tested. Which Kd did it give?
A: 68 nM

Reference: PMC10615782
